The record followed here is WO2004046187A2 (dated 2004).

In test [1] the target is T1, Recombinant oncogenic HRAS (G12V; residues 1 - 166) loaded with GppNp (human, UniProt P01112 1-166).
T1 construct: range 1-166; this form was used as antigen throughout the in vitro assays; also called HRASG12V-GppNp; RASG12V-GppNp
Description: SPR, BIAcore 2000; HRASG12V-GppNp immobilised on CM5 chip (about 1500 RU), purified scFv injected. For orientation: SPR reads the build-up and loss of mass on a sensor chip optically.

For test [2], the target named is T2, non-relevant antigen (β-galactosidase) bait in yeast (UniProt P00722 2-1024 = β-galactosidase).
T2 construct: Used as non-relevant bait in the yeast two-hybrid test
Kind of test: yeast two-hybrid (His-independent growth, β-gal activation).

Test [3] has as its target T3, LexA DBD (made from the empty pBTM116 vector) (UniProt P0A7C2 1-202).
T3 construct: domain: LexA DBD; Control bait in yeast
T3 sequence: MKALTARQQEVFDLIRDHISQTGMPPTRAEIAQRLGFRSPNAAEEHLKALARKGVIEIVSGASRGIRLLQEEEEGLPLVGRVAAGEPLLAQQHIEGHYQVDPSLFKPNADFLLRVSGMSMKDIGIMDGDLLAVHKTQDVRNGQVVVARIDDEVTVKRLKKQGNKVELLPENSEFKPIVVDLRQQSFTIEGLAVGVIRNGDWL
The description is as above.

T2 sequence (P00722 2-1024 limits assumed): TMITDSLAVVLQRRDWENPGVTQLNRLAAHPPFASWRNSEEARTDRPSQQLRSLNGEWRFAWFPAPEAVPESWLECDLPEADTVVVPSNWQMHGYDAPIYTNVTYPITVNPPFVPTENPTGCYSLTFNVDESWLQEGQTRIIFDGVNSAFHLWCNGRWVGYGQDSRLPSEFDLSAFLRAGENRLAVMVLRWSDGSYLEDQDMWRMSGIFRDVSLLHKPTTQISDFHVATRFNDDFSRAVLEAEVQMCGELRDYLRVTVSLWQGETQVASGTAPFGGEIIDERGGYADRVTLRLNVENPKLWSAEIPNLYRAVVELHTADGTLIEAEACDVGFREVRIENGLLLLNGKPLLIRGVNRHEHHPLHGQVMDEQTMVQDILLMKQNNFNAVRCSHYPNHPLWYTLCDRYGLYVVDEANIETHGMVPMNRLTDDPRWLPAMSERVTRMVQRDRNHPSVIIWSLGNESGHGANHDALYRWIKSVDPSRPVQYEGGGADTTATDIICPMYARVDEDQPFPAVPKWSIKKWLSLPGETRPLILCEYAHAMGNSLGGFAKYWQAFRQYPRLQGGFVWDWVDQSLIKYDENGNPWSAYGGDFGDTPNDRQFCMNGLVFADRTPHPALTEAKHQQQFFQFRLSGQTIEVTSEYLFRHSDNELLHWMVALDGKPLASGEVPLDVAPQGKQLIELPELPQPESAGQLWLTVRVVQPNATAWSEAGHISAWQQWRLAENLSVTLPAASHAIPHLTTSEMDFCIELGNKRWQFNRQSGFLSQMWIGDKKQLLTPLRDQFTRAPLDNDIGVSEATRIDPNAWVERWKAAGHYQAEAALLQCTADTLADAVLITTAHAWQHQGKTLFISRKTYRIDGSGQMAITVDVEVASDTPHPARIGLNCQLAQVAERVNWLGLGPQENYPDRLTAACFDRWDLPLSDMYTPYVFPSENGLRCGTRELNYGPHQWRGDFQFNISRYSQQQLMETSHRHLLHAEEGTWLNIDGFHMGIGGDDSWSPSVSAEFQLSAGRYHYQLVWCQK

B1: anti-RAS scFvI21, purified from bacterial periplasm (pHEN2) (scFv)
scFv: EVQLLESGGGLVQPGGSLRLSCAASGFTFSSYAMSWVRQAPGKGLEWVSTISYGGSNTNYADSVKARFTISRDNSKNTLYLQMNSLRAEDTAVYYCAKGNNAFDYWGQGTLVTVSSGGGGSGGGGSGGGGSTDIQMTQSPSSLSASVGDRVTITCRASQSISSYLNWYQQKPGKAPKLLIYNASALQSGVPSRFSGSGSGTDFTLTISSLQPEDFATYYCQQYTSTPRTFGQGTKVEIKR
notes: also called 121 (as the text prints it); ICAb 121; not shown: C-terminal His6-tag and myc-tag from pHEN2
By Kd is commonly meant the equilibrium constant for the complex coming apart. Consider B1, for which the dissociation constant (Kd) in test [1] was 2160 nM.

B2: scFvI21-VP16 activation domain fusion (scFv)
scFv: EVQLLESGGGLVQPGGSLRLSCAASGFTFSSYAMSWVRQAPGKGLEWVSTISYGGSNTNYADSVKARFTISRDNSKNTLYLQMNSLRAEDTAVYYCAKGNNAFDYWGQGTLVTVSSGGGGSGGGGSGGGGSTDIQMTQSPSSLSASVGDRVTITCRASQSISSYLNWYQQKPGKAPKLLIYNASALQSGVPSRFSGSGSGTDFTLTISSLQPEDFATYYCQQYTSTPRTFGQGTKVEIKR
notes: In the mammalian vector the scFv stands on the N-terminal side of VP16; the same id is used for the yeast pVP16 prey; also called 121; ICAb 121
As for B2, the binding result in test [2] and in test [3] was “no binding” in each case.
